Results published in patent US20230129258A1 (Bicycle, published 2023).
Positions count from the first letter of the chain named. Starred links: 1 amine or outer side, 2 acyl side, 3 side chain; linkers in the order of their positions; H or OH if unused. Positions of bridges follow the written chain, without caps; N, C: chain ends. Non-standard residues stand in square brackets, D forms with d. Chains are numbered I, II in the order given. No end group written: not given here. dLys(PYA) = D-lysine Nε-acylated with 4-pentynoic acid, clicked (triazole) to the linker azide, O=C(CCc1cn([*:3])nn1)NCCCC[C@@H](N[*:1])C(=O)[*:2]; TATA = O=C(CC[*:1])N1CN(C(=O)CC[*:2])CN(C(=O)CC[*:3])C1; 1Nal = N[C@@H](Cc1cccc2ccccc12)C(=O)O; Hyp = O=C(O)[C@@H]1C[C@@H](O)CN1; hArg = N=C(N)NCCCC[C@H](N)C(=O)O; tBuAla = CC(C)(C)C[C@H](N)C(=O)O; Nle = CCCC[C@H](N)C(=O)O

What was measured:
[1] = biological target: T1, CD137 on Jurkat reporter cells (Promega kit CS196005) (UniProt Q07011 24-255, limits assumed); test: cell-based or functional assay
[2] = biological target: T2, cyno (NHP) Nectin-4 extracellular domain (cyno (NHP), UniProt A0A2K5WES1 32-349, biotinylated where captured on the streptavidin chip); test: SPR sandwich assay, BCY11863 captured on biotinylated human CD137, soluble Nectin-4 ECD passed over, n = 3
T2 construct: extracellular domain
T2 sequence: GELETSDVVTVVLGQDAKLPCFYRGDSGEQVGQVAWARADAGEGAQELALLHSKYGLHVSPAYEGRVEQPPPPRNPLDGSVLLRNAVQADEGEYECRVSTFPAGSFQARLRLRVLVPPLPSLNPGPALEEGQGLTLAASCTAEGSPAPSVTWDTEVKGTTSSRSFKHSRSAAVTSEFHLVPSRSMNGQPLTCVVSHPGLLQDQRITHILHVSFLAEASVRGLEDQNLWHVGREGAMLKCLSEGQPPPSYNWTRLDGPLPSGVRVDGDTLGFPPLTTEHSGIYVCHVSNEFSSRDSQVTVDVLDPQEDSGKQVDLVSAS

[3] = biological target: T3, rat Nectin-4 extracellular domain (rat, UniProt D3ZET1 31-348, biotinylated where captured on the streptavidin chip); test: as above
T3 construct: extracellular domain
T3 sequence: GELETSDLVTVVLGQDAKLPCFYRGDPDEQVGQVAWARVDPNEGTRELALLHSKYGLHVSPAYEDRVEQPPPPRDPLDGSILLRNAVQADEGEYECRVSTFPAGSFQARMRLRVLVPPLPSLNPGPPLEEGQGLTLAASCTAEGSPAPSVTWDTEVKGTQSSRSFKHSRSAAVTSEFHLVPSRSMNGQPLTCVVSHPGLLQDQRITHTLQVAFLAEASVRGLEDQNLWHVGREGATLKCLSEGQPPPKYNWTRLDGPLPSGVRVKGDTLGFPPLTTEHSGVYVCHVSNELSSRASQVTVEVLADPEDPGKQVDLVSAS

[4] = biological target: T4, mouse Nectin-4 extracellular domain (mouse, UniProt Q8R007 31-347, biotinylated where captured on the streptavidin chip); test: as above
T4 construct: extracellular domain
T4 sequence (looked up): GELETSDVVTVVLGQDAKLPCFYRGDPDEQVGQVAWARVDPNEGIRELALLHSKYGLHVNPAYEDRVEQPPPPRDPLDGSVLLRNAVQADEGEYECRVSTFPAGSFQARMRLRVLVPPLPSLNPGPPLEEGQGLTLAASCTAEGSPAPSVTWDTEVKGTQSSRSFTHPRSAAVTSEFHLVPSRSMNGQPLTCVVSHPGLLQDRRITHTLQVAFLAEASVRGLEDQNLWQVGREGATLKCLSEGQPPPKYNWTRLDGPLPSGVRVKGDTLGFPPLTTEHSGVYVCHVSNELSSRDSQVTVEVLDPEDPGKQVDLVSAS

[5] = biological target: T5, human CD137 extracellular domain (human, UniProt Q07011 24-186, biotinylated where captured on the streptavidin chip); test: dual binding SPR: BCY11863 captured on immobilized human Nectin-4, soluble human CD137 as analyte, 1:1 fit [ctd) D]
T5 construct: extracellular domain; Section 17 says only 'Recombinant human CD137 (R&D systems)'; also called CD137 (human); Recombinant human CD137 (R&D systems)

[6] = biological target: T5, human CD137 extracellular domain; test: SPR, direct binding of BCY11863 to immobilized human CD137, 1:1 fit; avidity from two CD137 bicycles
[7] = biological target: T6, human Nectin-4 extracellular domain (human, UniProt Q96NY8 32-349, biotinylated where captured on the streptavidin chip); test: SPR sandwich assay, BCY11863 captured on biotinylated human CD137, soluble Nectin-4 ECD passed over, n = 4
T6 construct: extracellular domain; also called Nectin-4 (human); Biotinylated - Nectin-4 extracellular domain
T6 sequence (looked up): T2 sequence with A39V, V230I

[8] = biological target: T6, human Nectin-4 extracellular domain; test: SPR, direct binding of BCY11863 to immobilized human Nectin-4, 1:1 fit
[9] = biological target: T3, rat Nectin-4 extracellular domain; test: SPR direct binding, biotinylated Nectin-4 ECD on streptavidin chip, 25° C., n = 6
[10] = biological target: T5, human CD137 extracellular domain; test: SPR, direct binding of BCY11863 to immobilized human CD137, 1:1 fit; the text calls the off rate very slow (avidity from two CD137 bicycles)
[11] = biological target: T1, CD137 on Jurkat reporter cells (Promega …); test: cell-based or functional assay; remark: listed apart in the source
[12] = biological target: T6, human Nectin-4 extracellular domain; test: SPR, one example sensorgram (FIG. 21A), immobilized Nectin-4

T5 sequence (Q07011 24-186): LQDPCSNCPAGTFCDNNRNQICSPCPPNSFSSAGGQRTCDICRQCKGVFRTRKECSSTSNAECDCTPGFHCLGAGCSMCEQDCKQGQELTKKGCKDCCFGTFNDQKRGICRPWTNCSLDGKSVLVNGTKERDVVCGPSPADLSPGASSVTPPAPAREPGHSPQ
T1 sequence (Q07011 24-255 limits assumed): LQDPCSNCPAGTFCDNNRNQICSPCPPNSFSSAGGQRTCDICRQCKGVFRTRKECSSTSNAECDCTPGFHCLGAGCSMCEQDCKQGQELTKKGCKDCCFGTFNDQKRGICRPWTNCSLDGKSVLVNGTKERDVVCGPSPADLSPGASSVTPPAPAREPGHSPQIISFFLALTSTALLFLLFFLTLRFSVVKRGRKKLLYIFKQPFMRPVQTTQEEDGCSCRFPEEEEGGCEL

B1: heterotandem bicyclic peptide complex BCY11863 (peptide)
peptide 1: CP[1Nal][dD]CM[hArg]DWSTP[Hyp]WC
peptide 2: Ac-C[tBuAla]PE[dLys(PYA)]PYCFADPY[Nle]CA
modifications: linker I:1-I:5-I:15, II:1-II:8-II:15 via TATA; not fully specified (bridges); also: 1:2 complex: BCY8116 + 2x BCY8928
notes: also called Nectin-4/CD137 heterotandem
Fold improvement in EC50 over BCY10000 on same plate, NCI-H292 [1]: 4.56 fold | Fold improvement in Emax over BCY10000 on same plate, NCI-H292 [1]: 2.16 fold | Kd [2]: 28 nM | Kd [3]: 25 nM | Kd [4]: 6.7 nM | Kd [5]: 6.26 nM | koff [5]: 0.00275 s⁻¹ | kon [5]: 439000 M⁻¹ s⁻¹ | kon [6]: 952000 M⁻¹ s⁻¹ | Kd [7]: 12 nM | koff [8]: 0.00229 s⁻¹ | kon [8]: 561000 M⁻¹ s⁻¹ | Kd [9]: 15 nM | koff [10]: 0.00035 s⁻¹ | EC50 (nM), NCI-H292 co-culture [11]: 0.168 nM | Fold Induction over Background, NCI-H292 co-culture [11]: 81 fold | Kd [12]: 4.1 nM
